“And” between values parts separate entries of the source, which are not always exact repeats. Equal values may be shown once.
Details: Mus musculus; pH 3.5; 23 °C; GdnHCl; Fluorescence; citrate-phosphate 100 mM; reversible: yes; whole UniProt chain shown

B1: Neurotrophin-3 wild type, P20181 (protein)
chain: MSILFYVIFLAYLRGIQGNSMDQRSLPEDSLNSLIIKLIQADILKNKLSKQMVDVKENYQSTLPKAEAPREPEQGEATRSEFQPMIATDTELLRQQRRYNSPRVLLSDSTPLEPPPLYLMEDYVGNPVVANRTSPRRKRYAEHKSHRGEYSVCDSESLWVTDKSSAIDIRGHQVTVLGEIKTGNSPVKQYFYETRCKEARPVKNGCRGIDDKHWNSQCKTSQTYVRALTSENNKLVGWRWIRIDTSCVCALSRKIGRT
For B1, the denaturant m value was 3.4 kcal/mol/M and 4 kcal/mol/M and 5.1 kcal/mol/M, the “denaturant midpoint (higher = more stable)” value was 1.4 M and 2.2 M and 2.1 M and the unfolding free energy was 53.1 kJ/mol and 71.1 kJ/mol and 79.5 kJ/mol.
